Source: patent publication US20120316071A1 (published 2012)

T1: rHuman Erythropoietin R/Fc Chimera, CF (R&D Systems Cat#963-ER) (human, UniProt P19235 25-250)
T1 construct: Bought recombinant protein; also called EPO R; EPO R/Fc; Fc part of the bought chimera not given
T1 sequence (looked up): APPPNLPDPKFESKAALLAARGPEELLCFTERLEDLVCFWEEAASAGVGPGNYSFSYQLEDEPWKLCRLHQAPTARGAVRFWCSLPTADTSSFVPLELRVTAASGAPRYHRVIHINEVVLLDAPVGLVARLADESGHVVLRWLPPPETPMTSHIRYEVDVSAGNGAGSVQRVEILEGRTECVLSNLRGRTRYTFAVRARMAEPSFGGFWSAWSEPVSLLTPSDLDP


Legend:
[1] = target: T2, Recombinant Human DLL4 (R&D Systems Cat#1506-D4/CF) (human, UniProt Q9NR61 27-524); assay: ELISA, DLL4 coated on plate, Fab at 100 nM, absorbance at 450 nm
T2 construct: also called delta-like protein 4; rHuman DLL4

[2] = target: T3, rHuman ErbB2/Fc Chimera, CF (R&D Systems Cat#1129-ER) (human, UniProt P04626 23-652); assay: ECL multispot (MSD), 20 nM Fab;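 further: purified Fab binding to antigens on multispot plates, read by electrochemiluminescence with a TAG-labelled detection antibody, 1 h Fab incubation at 20 °C, signal expressed relative to each well's blank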
T3 construct: Bought recombinant protein; also called human epidermal growth factor 2 receptor; Fc part of the bought chimera not given

[3] = target: T4, Recombinant Human DLL4 (R&D Systems Cat#1506-D4/CF) (human, UniProt Q9NR61 27-524); assay: ECL multispot (MSD), 20 nM Fab;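 further: purified Fab binding to antigens on multispot plates, read by electrochemiluminescence with a TAG-labelled detection antibody, 1 h Fab incubation at 20 °C, signal expressed relative to each well's blank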
T4 construct: Bought recombinant protein; also called delta-like protein 4; rHuman DLL4

[4] = target: T5, rHuman EGF R/Fc Chimera, CF (R&D Systems Cat#344-ER) (human, UniProt P00533 25-645); assay: ECL multispot (MSD), 20 nM Fab;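 further: purified Fab binding to antigens on multispot plates, read by electrochemiluminescence with a TAG-labelled detection antibody, 1 h Fab incubation at 20 °C, signal expressed relative to each well's blank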
T5 construct: Bought recombinant protein; also called epidermal growth factor receptor; Fc part of the bought chimera not given

[5] = target: T6, rHuman IGF-1 sR, (IGF-1 sR), CF (R&D Systems Cat#391-GR) (human, UniProt P08069 31-932); assay: ECL multispot (MSD), 20 nM Fab;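 further: purified Fab binding to antigens on multispot plates, read by electrochemiluminescence with a TAG-labelled detection antibody, 1 h Fab incubation at 20 °C, signal expressed relative to each well's blank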
T6 construct: Bought recombinant soluble receptor; also called insulin-like growth factor-1 soluble receptor

[6] = target: T7, rHuman P-Cadherin/Fc Chimera, CF (R&D Systems Cat#861-PC) (human, UniProt P22223 108-654); assay: ECL multispot (MSD), 20 nM Fab
T7 construct: Bought recombinant protein; Fc part of the bought chimera not given

[7] = target: T8, rHuman CD44/Fc Chimera, CF (R&D Systems Cat#3660-CD) (human, UniProt P16070 21-220); assay: ECL multispot (MSD), 20 nM Fab
T8 construct: Bought recombinant protein; Fc part of the bought chimera not given

[8] = target: T9, rHuman Notch-1/Fc Chimera, CF (R&D Systems Cat#3647-TK) (human, UniProt P46531 19-526); assay: ECL multispot (MSD), 20 nM Fab
T9 construct: Bought recombinant protein; Fc part of the bought chimera not given

[9] = target: T1, rHuman Erythropoietin R/Fc Chimera, CF …; assay: ECL multispot (MSD), 20 nM Fab

Row | Binder | ELISA Signal-blank (100 nM Fab) [1] | ECL signal ratio (column head gives no unit) [2] | ECL signal ratio (column head gives no unit) [3] | ECL signal ratio (column head gives no unit) [4] | ECL signal ratio (column head gives no unit) [5] | ECL signal ratio (column head gives no unit) [6] | ECL signal ratio (column head gives no unit) [7] | ECL signal ratio (column head gives no unit) [8] | ECL signal ratio (column head gives no unit) [9]
1 | Fab VH5-51_IGHD5-18*01>3_IGHJ4*01 G100K/G104T G24T/S28R/G35V (H:KT TRV) & V3-4_IGLJ1*01 S96R (Fab, V domains shown, Tested as Fab expressed in E. coli) VH: EVQLVQSGAEVKKPGESLKISCKTSGYRFTSYWIVWVRQMPGKGLEWMGIIYPGDSDTRYSPSFQGQVTISADKSISTAYLQWSSLKASDTAMYYCARRKYSYTYDYFDYWGQGTLVTVSS VL: QTVVTQEPSFSVSPGGTVTLTCGLSSGSVSTSYYPSWYQQTPGQAPRTLIYSTNTRSSGVPDRFSGSILGNKAALTITGAQADDESDYYCVLYMGRGISYVFGTGTKVTVL | 0.499 | – | – | – | – | – | – | – | –
2 | Fab VH5-51_IGHD5-18*01>3_IGHJ4*01 G100K/G104T G24T/S28R/G35V (H:KT TRV) & V3-4_IGLJ1*01 S96V (Fab, V domains shown, Tested as Fab expressed in E. coli) VH: EVQLVQSGAEVKKPGESLKISCKTSGYRFTSYWIVWVRQMPGKGLEWMGIIYPGDSDTRYSPSFQGQVTISADKSISTAYLQWSSLKASDTAMYYCARRKYSYTYDYFDYWGQGTLVTVSS VL: QTVVTQEPSFSVSPGGTVTLTCGLSSGSVSTSYYPSWYQQTPGQAPRTLIYSTNTRSSGVPDRFSGSILGNKAALTITGAQADDESDYYCVLYMGVGISYVFGTGTKVTVL | 0.452 | – | – | – | – | – | – | – | –
3 | Fab VH3-23_IGHD2-21*01>3_IGHJ6*01 H100E/S108P/Y113G (EPG) Y109D & V2-13_IGLJ2*01 (Fab, V domains shown, Fab; NNK mutant of the EPG heavy chain; CH1 (tags) and lambda CL come from the vectors) VH: not shown VL: SSELTQDPAVSVALGQTVRITCQGDSLRSYYASWYQQKPGQAPVLVIYGKNNRPSGIPDRFSGSSSGNTASLTITGAQAEDEADYYCNSRDSSGNHLVVFGGGTKLTVL | – | 1.3 | 1.4 | 1.4 | 1.4 | 1.8 | 1 | 1.3 | 2
4 | Fab VH3-23_IGHD2-21*01>3_IGHJ6*01 H100E/S108P/Y113G (EPG) Y109H & V2-13_IGLJ2*01 (Fab, V domains shown, Fab; NNK mutant of the EPG heavy chain; CH1 (tags) and lambda CL come from the vectors) VH: not shown VL: SSELTQDPAVSVALGQTVRITCQGDSLRSYYASWYQQKPGQAPVLVIYGKNNRPSGIPDRFSGSSSGNTASLTITGAQAEDEADYYCNSRDSSGNHLVVFGGGTKLTVL | – | 1.7 | 1.4 | 1.4 | 1.2 | 3.9 | 1.1 | 1.2 | 18.3
5 | Fab VH3-23_IGHD2-21*01>3_IGHJ6*01 H100E/S108P/Y113G (EPG) Y109Q & V2-13_IGLJ2*01 (Fab, V domains shown, Fab; NNK mutant of the EPG heavy chain; CH1 (tags) and lambda CL come from the vectors) VH: not shown VL: SSELTQDPAVSVALGQTVRITCQGDSLRSYYASWYQQKPGQAPVLVIYGKNNRPSGIPDRFSGSSSGNTASLTITGAQAEDEADYYCNSRDSSGNHLVVFGGGTKLTVL | – | 1.3 | 1.2 | 1.7 | 1.1 | 2.2 | 1.3 | 1.3 | 3.1
6 | Fab VH3-23_IGHD2-21*01>3_IGHJ6*01 H100E/S108P/Y113G (EPG) Y109T & V2-13_IGLJ2*01 (Fab, V domains shown, Fab; NNK mutant of the EPG heavy chain; CH1 (tags) and lambda CL come from the vectors) VH: not shown VL: SSELTQDPAVSVALGQTVRITCQGDSLRSYYASWYQQKPGQAPVLVIYGKNNRPSGIPDRFSGSSSGNTASLTITGAQAEDEADYYCNSRDSSGNHLVVFGGGTKLTVL | – | 1.7 | 1.5 | 1.4 | 1.3 | 2.1 | 1.1 | 1.7 | 6
7 | Fab VH3-23_IGHD2-21*01>3_IGHJ6*01 H100E/S108P/Y113G (EPG) Y109L & V2-13_IGLJ2*01 (Fab, V domains shown, Fab; NNK mutant of the EPG heavy chain; CH1 (tags) and lambda CL come from the vectors) VH: not shown VL: SSELTQDPAVSVALGQTVRITCQGDSLRSYYASWYQQKPGQAPVLVIYGKNNRPSGIPDRFSGSSSGNTASLTITGAQAEDEADYYCNSRDSSGNHLVVFGGGTKLTVL | – | – | 2 | – | 1.7 | 4 | 1.6 | 1.9 | 22.1
